This experiment deals with human trimeric IL-2 receptor (IL-2Rα, IL2Rβ and reconstituted transgenic wild-type GCR) on GnR cells (human) (UniProt P01589). Put plainly: cell-based or functional assay.

Substance “IL-15 (from UniProt P40933 49-162) (ligand)” registered an EC50 of the mRuby2 response (STAT5-mRuby2 reporter) of 560 pM.

For the origin of these results see patent EP4293040A1.
